From publication PMC10192418 (2023) come the findings set out here.

Ends that are not written are not given here. FAM = 5(6)-carboxyfluorescein (N-terminal)

The chains are these.
B1: peptide 3 isomer 2 (peptide)
chain: Fluorescein-RCPECVAFPMFQCHWYCG
modifications: not fully specified (bridges); also: disulfide pairing not given here
B2: peptide 3 isomer 3 (peptide)
chain: Fluorescein-RCPECVAFPMFQCHWYCG
modifications: not fully specified (bridges); also: disulfide pairing not given here
B3: B-RCAL (BÜHLMANN recombinant calprotectin; His6-linker-S100A9-linker-S100A8) (complex)
chain: MTCKMSQLERNIETIINTFHQYSVKLGHPDTLNQGEFKELVRKDLQNFLKKENKNEKVIEHIMEDLDTNADKQLSFEEFIMLMARLTWASHEKMHEGDEGPGHHHKPGLGEGTPLEVLFQGPMLTELEKALNSIIDVYHKYSLIKGNFHAVYRDDLKKLLETECPQYIRKKGADVWFKELDINTDGAVNFQEFLILVIKMGVAAHKKSHEESHKE
B4: linear peptide 3 (peptide)
peptide: {FAM}-RSPESVAFPMFQSHWYSG

For assay [1], the target named is B3. The assay can be described thus: SPR. On the technique in general: In SPR one partner is held on a chip, and binding of the other changes the refractive index at the surface.
The target in assay [2] is Peptide 2. The assay can be described thus: SPR.
The next assay deals with Peptide 3. The assay can be described thus: SPR.
Assay [3] has as its target Peptide 7. The experiment in a line: SPR.
The target of assay [4] is Peptide 4. The assay can be described thus: SPR.
In assay [5] the target is Peptide 6. The experiment in a line: SPR.
Assay [6] addresses Peptide 1. The experiment in a line: SPR.
In the next assay the target is Peptide 11. The experiment in a line: FP; calcium (tetramer).
The next assay concerns the target Peptide 12. The assay can be described thus: FP; calcium (tetramer).
In another assay the target is Peptide 13. The assay can be described thus: FP; calcium (tetramer).
Another assay deals with Peptide 10. The assay can be described thus: FP; calcium (tetramer).
For a further assay, the target named is Peptide 9. The experiment in a line: FP; calcium (tetramer).
A further assay concerns the target Peptide 5. The experiment in a line: FP; Ca2+.
For assay [7], the target named is Peptide 2. The experiment in a line: FP; Ca2+.
Assay [8] addresses Peptide 7. The experiment in a line: FP; Ca2+.
Assay [9] concerns the target Peptide 4. The experiment in a line: FP; Ca2+.
Assay [10] has as its target Peptide 6. The experiment in a line: FP; Ca2+.
For assay [11], the target named is Peptide 1. The assay can be described thus: FP; Ca2+.
The target of the next assay is Peptide 8. The assay can be described thus: FP; calcium (tetramer).

As for B1, in [1], the Kd (usually the concentration at which binding is half-saturated) came to 500 nM.
On the same count and under the same terms, then B2, with 270 nM.
As to B3, the Kd with Peptide 2 [2] worked out at 400 nM; with Peptide 3, 340 nM; with Peptide 7 [3], 840 nM; with Peptide 4 [4], 1100 nM; in the assay with Peptide 6 [5] it was 310 nM; in the assay with Peptide 1 [6], 1220 nM. The Kd with Peptide 11 is 42000 nM; with Peptide 12, 37000 nM; with Peptide 13, 154000 nM; with Peptide 10, 190000 nM; with Peptide 9, 29000 nM; with Peptide 5 it was 55 nM. The Kd in the assay with Peptide 2 [7] worked out at 22 nM; with Peptide 7 [8], 25 nM; with Peptide 4 [9] it was 34 nM; with Peptide 6 [10], 10 nM; with Peptide 1 [11], 38 nM; with Peptide 8, 89 nM.
Take B4: the Kd in assay [1] came to 46 nM.
